The results in this text go back to patent US9217013B2, “Treatment of amyloidoses using myelin basic protein and fragments thereof” (The Research Foundation for the State University of New York, priority 2008, dated 2015).

Data set [1] has as its target T1, Aβ40DI (Homo sapiens, UniProt P05067, D694N/E693Q). In words: Co-immunoprecipitation of MBP with Aβ40DI. Type of data set: binding. To be noted: purified MBP. The method, then: AP peptides were resuspended in Me2SO to 2.5 mM and used at 10.8 μM. MBP was used at 1.56 μM. Proteins were combined in 250 μl of incubation buffer (PBS, 0.05% Tween 20, and 1% BSA). Anti-MBP mAb 382 was added to each sample mixture and incubated for 1 h at 4° C. with rocking. After incubation, 20 μl of washed GammaBind protein G-Sepharose beads (Amersham Biosciences) were added to each mixture, followed by incubation for an additional 1 h at 4° C. with rocking. Beads were separated by centrifugation at 8000×g for 2 min. Supernatants were removed, and beads were washed with 1 ml of incubation buffer. Separation and washing were repeated three times. A final wash was performed in PBS and 0.05% Tween 20 to remove excess BSA. Centrifuged beads were combined with 25 μl of reducing SDS-PAGE loading buffer and heated as described above. 10 μl of each sample/loading buffer mixture was loaded onto 10-20% Tricine gels (Invitrogen) and electrophoresed at 125 V for 35 min. Immunoblotting was carried out as described above using either biotinylated anti-MBP mAb 384 or biotinylated anti-Aβ mAb 3D6 as primary antibody. Experiments were performed in triplicate.

Data set [2] has as its target T1, Aβ40DI. Kind of data set: Quantitative immunoblot analysis of Aβ40DI fibril assembly. In kind it is biochemical. To be noted: 12.5 μM Aβ40DI, 1.56 μM MBP, up to 12 h. The method, then: Aβ40DI (12.5 μM) was incubated in the absence (A and D) or presence (C and F) of 1.56 […] purified MBP. Bovine a-lactalbumin (Lalb. 1.56 μM) was included as a negative control (B and E). Aliquots were removed at specific time points and analyzed by quantitative immunoblot analysis using anti-Aβ mAb 6E10. […] Data represent the means±S.D. of three separate experiments.
Briefly, samples were heated at 90° C. for 5 min in reducing SDS-PAGE loading buffer, loaded onto gels, and electrophoresed. Gels were transferred to Hybond ECL nitrocellulose membranes (Amersham Biosciences) at 50 V overnight at 4° C. Membranes were blocked in PBS containing 5% milk or bovine serum albumin (BSA; used with biotinylated primary antibodies) at room temperature for 1 h and washed 3×10 min with PBS and 0.05% Tween 20. Membranes were incubated with primary antibodies for 1 h and washed as described above. Next, the membranes were incubated with either horseradish peroxidase-conjugated sheep anti-mouse IgG or horseradish peroxidase-conjugated streptavidin (both from Amersham Biosciences) for 1 h and washed. Detection was accomplished using ECL Western blotting substrate (Pierce), and images were captured either on film or using a VersaDoc 3000 imaging system (Bio-Rad) and quantitated with the manufacturer's Quantity One software.
(In general: Immunoblotting shows a protein as a band on a membrane.)

Data set [3] deals with T1, Aβ40DI. Kind of data set: Thioflavin T fluorescence assay of Aβ40DI fibril formation. Type of data set: biochemical. To be noted: 12.5 μM Aβ40DI, 1.56 μM protein, PBS, 37° C. The method, then: FIG. 16 Thioflavin T analysis of inhibition of CAA mutant Aβ fibril formation by MBP. Aβ40DI at a concentration of 12.5 μM in PBS in the absence (□) or presence of 1.56 μM MBP(□) or bovine a-lactalbumin (Lalb; □) as a control. At specific time points, aliquots were collected from each sample and analyzed by thioflavin T binding and fluorescence to determine fibrillar assembly. Data represent the means±S.D. of triplicate samples. A.U., arbitrary units.
The Aβ B binding properties of the exemplary fragments of MBP described herein were determined in a thioflavin T fluorescence assay as follows: Lyophilized Aβ peptides were first resuspended with Me2SO to 2.5 mM, diluted to 12.5 μM in PBS, and then incubated at 37° C. with rocking either alone or with 1.56 μM MBP or bovine α-lactalbumin. Control samples containing 0.5% Me2SO and 1.56 μM MBP or lactalbumin in PBS were also included. At each time point, 100 μl samples of each reaction were placed in a 96-well microplate in triplicate, and 5 μl of 100 µM thioflavin T was added. The plate was mixed and incubated at 22° C. in the dark for 10 min. Fluorescence was measured at 490 nm with an excitation wavelength of 446 nm in a SpectraMax spectrofluorometer (Molecular Devices, Sunnyvale, Calif.) using SoftMax Pro control software. It is apparent that the method enables persons of skill in the art to determine the binding properties of MBP, variants thereof, and fragments thereof for any Aβ-peptide, including mutants thereof.

The target of the next data set is Dutch/Iowa Aβ40 (Aβ40DI) (Homo sapiens, UniProt P05067, D694N/E693Q). In words: TEM and single-touch AFM of Aβ40DI fibril formation. Type of data set: biochemical. The method, then: FIG. 18 Inhibition of Aβ40DI fibril formation by MBP as assessed by TEM and single-touch AFM analyses. Aβ40DI peptides at a concentration of 12.5 μM in PBS in the absence or presence of 1.56 μM MBP. Samples were imaged at 6 h by TEM (A and B) and at 3 h by single-touch AFM (D and E). Aliquots of 1.56 μM MBP alone were imaged by TEM (C) and by AFM (F).
For electron microscopy, a 20 μl aliquot of the sample mixture was deposited onto a Formvar-coated copper mesh grid. The sample was allowed to stand for 60 s, and excess solution was wicked away. The samples were negatively stained with 2% (w/v) uranyl acetate. The excess stain was wicked away, and the sample was allowed to dry. The samples were viewed with an FEI Tecnai 12 BioTwin transmission electron microscope, and digital images were taken with an Advanced Microscopy Techniques camera.
Atomic force microscopy (“AFM”) was carried out using a lifeScan controller (LifeAFM Inc., Port Jefferson, N.Y.) interfaced with a MultiMode microscope (Digital Instruments, Santa Barbara, Calif.) fitted with an E seamier. With this instrument configuration, only a single contact of the AFM probe is made with the sample per pixel. Computer control of the cantilever position and angle during approach allows for detection of the sample height with minimum cantilever deflection, allowing for a minimum compressive force (30-100 piconewtons/nm) applied to the sample. AFM samples were prepared by adsorbing 20 μl of sample mixture to freshly cleaved ruby mica (S & J Trading, Inc., Glen Oaks, N.Y.) for 45 min to 1 h. The samples were rehydrated with ultrapure Milli-Q water (Millipore Corp., Billerica, Mass.) and immediately imaged. Samples were imaged using SuperSharpSilicon probes (SSS-CONT, NANOSENSORS, Neuchatel, Switzerland) that were modified for magnetic retraction by attaching samarium cobalt particles. The effective diameter of the SuperSharpSilicon probes was 4±1 nm at a height of 2 nm. Data analysis and graphics were performed using Interactive Display Language Version 5.0 (Research Systems, Inc., Boulder, Colo.). In the Z-scale bars, numbers in each color square indicate the Z-value at the middle of the range for that color.

Setting [4] is: in the presence of MBP at 3 hours.

“Also recorded” adds a separate entry of the source. Where only a bound is given, the exact number is not on record here.

B1: myelin basic protein (protein)
chain: ASQKRPSQRHGSKYLATASTMDHARHGFLPRHRDTGILDSIGRFFGGDRGAPKRGSGKDSHHPARTAHYGSLPQKSHGRTQDENPVVHFFKNIVTPRTPPPSQGKGRGLSLSRFSWGAEGQRPGFGYGGRASDYKSAHKGFKGVDAQGTLSKIFKLGGRDSRSGSPMARR
notes: myelin basic protein, major form about 18.5 Kd (170 residues); purified protein
Consider B1, for which the “preference for Aβ40DI over Aβ40WT by immunoprecipitation” value with Aβ40DI [1] is on record as “showed no preference”. Moreover, the “accumulation of high molecular mass species of Aβ40DI” value with Aβ40DI [2] was “allows no high molecular mass species of Aβ40DI to accumulate”. Further, the “inhibition of Aβ40DI fibril assembly (thioflavin T)” value with Aβ40DI [3] was “completely inhibits; also recorded: inhibit”. In addition, the “aggregation of MBP alone (TEM and AFM)” value with Dutch/Iowa Aβ40 (Aβ40DI) (1.56 μM MBP alone) is given as “does not aggregate significantly”. The “Aβ40DI fibril formation by TEM” value with Dutch/Iowa Aβ40 (Aβ40DI) (6 hours, sub-stoichiometric MBP) was “no evidence of fibril formation”. In addition, in the data set with Dutch/Iowa Aβ40 (Aβ40DI) (setting [4]), the “heights of Aβ40DI oligomers and protofibrils by AFM” value is “≈ 2 nm”; the “lengths of Aβ40DI oligomers and protofibrils by AFM” value is on record as under 200 nm.
